Here are results for four molecules from US7387779B2, “Anti-angiogenic proteins and fragments and methods of use thereof” (Beth Israel Deaconess Medical Center, priority 1998, dated 2008).

One experiment has as its system PC-3 tumors. In words: PC-3 xenograft in athymic nude NCRNU mice (Example 46). It counts as in vivo. As to the method:
Tumstatin-44-131 was also tested for its ability to suppress tumor growth. Male athymic nude NCRNU mice, of 5-6 weeks of age and about 25 g, were implanted with […] approximately 2×10^6 PC-3 (prostate cancer carcinoma) cells into the dorsal subcutis. […] The tumors were allowed to grow to about 50 mm^3, and animals were then pair-matched into groups of 6 mice. Initial doses of protein or vehicle (PBS, control) were given on the day of pair-matching (Day 1). Tumstatin-44-131, Tum-5-125-C-A, or human endostatin in sterile PBS was intraperitoneally injected daily b.i.d. at doses ranging from 1 to 20 mg/kg for 20 days. Control animals received injection of PBS vehicle. In one treatment, continuous subcutaneous delivery of Tumstatin-44-131 was done using surgically implanted Alzet mini-pumps. The mice were weighed twice weekly, and tumor measurements were taken, starting on Day 1. Estimated mean tumor volumes were calculated, and at Day 21, the mice were weighed, sacrificed, and their tumors excised and examined by light microscopy and CD31 immunostaining. The mean treated tumor weight was divided by the mean control tumor weight was subtracted from one, and expressed as a percentage to give the tumor growth inhibition for each group.

Experiment [1] relates to mouse aortic endothelial cells (MAE). Description: Endothelial tube formation on Matrigel. Format: cell-based. The settings on record: for ED50: endothelial tube assay (FIGS. 30 and 31). As to the method: To measure inhibition of endothelial tube formation, 320 μl of Matrigel (Collaborative Biomedical Products, Bedford, Mass., USA) was added to each well of a 24-well plate and allowed to polymerize (Grant, D. S. et al., 1994, Pathol. Res. Pract. 190:854-63). A suspension of 25,000 mouse aortic endothelial cells (MAE) in EGM-2 medium (Clonetics Corp., San Diego, Calif., USA) without antibiotic was passed into each well coated with Matrigel. The cells were treated with increasing concentrations of either Arresten, BSA, sterile PBS or the 7S domain. All assays were performed in triplicate. Cells were incubated for 24-48 hours at 37° C. and viewed using a CK2 Olympus microscope (3.3 ocular, 10× objective). The cells were then photographed using 400 DK coated TMAX film (Kodak). Cells were stained with diff-quik fixative (Sigma Chemical Company, St. Louis, Mo., USA) and photographed again. Ten fields were viewed, and the tubes counted and averaged.
Matrigel (Collaborative Biomedical Products, Bedford, Mass., USA) was added ([…]) to each well of a 24 well plate and allowed to polymerize (Grant, D. S. et al., supra). A suspension of 25,000 mouse aortic endothelial cells (MAE) in EGM-2 (Clonetics Corporation, San Diego, Calif., USA) medium without antibiotic was passed into each well coated with Matrigel. The cells were treated with either Canstatin, BSA, sterile PBS or α5-NC1 domain in increasing concentrations. All assays were performed in triplicate. Cells were incubated for 24-48 hours at 37° C. and viewed using a CK2 Olympus microscope (3.3 ocular, 10× objective). The cells were then photographed using 400 DK coated TMAX film (Kodak). Cells were stained with diff-quik fixative (Sigma Chemical Co., St. Louis, Mo., USA) and photographed again (Grant, D. S. et al., 1994, Pathol. Res. Pract. 190:854-63). Ten fields were viewed, tubes counted and averaged.
Matrigel (Collaborative Biomedical Prods., Bedford, Mass., USA) was added ([…]) to each well of a 24-well plate and allowed to polymerize (Grant, D. S. et al., 1994, Pathol. Res. Pract. 190:854-63). A suspension of 25,000 MAE cells in EGM-2 medium (Clonetics Corporation, San Diego, Calif., USA) without antibiotic was passed into each well coated with Matrigel (Grant, D. S. et al., 1994, Pathol. Res. Pract. 190:854-63). The cells were treated with either Tumstatin, BSA or 7S domain in increasing concentrations. Control cells were incubated with sterile PBS. All assays were performed in triplicate. Cells were incubated for 24-48 hours at 37° C. and viewed using a CK2 Olympus microscope (magnification of 3.3× ocular, 10× objective). The cells were then photographed using 400 DK coated TMAX film (Kodak). Cells were stained with diff-quik fixative (Sigma Chemical Co.) and photographed again (Grant, D. S. et al., 1994, Pathol. Res. Pract. 190:854-63). Ten fields were viewed, and the number of tubes were counted by two investigators unaware of the experimental protocols, and averaged.
Fragments and mutants of Arresten and Canstatin were also made according to the Pseudomonas elastase digestions of Mariyama et al. (1992, J. Biol. Chem. 267:1253-58). The digest was resolved by gel filtration HPLC and the resultant fragments were analyzed by SDS-PAGE and evaluated in the endothelial tube assay described above. These fragments included a 12 kDa fragment of Arresten, an 8 kDa fragment of Arresten, and a 10 kDa fragment of Canstatin. In addition, two fragments of Tumstatin (‘333’ and ‘334’) were generated by PCR cloning.

B1: Tumstatin-44-131: residues 44 to 131 of full-length Tumstatin (SEQ ID NO:33) (protein)
chain: FSFLFVQGNQRAHGQDLGTLGSCLQRFTTMPFLFCNVNDVCNFASRNDYSYWLSTPALMPMNMAPITGRALEPYISRCTVCEGPAIAI
modifications: Tumstatin-45-132 (amino acids 45-132 of SEQ ID NO10)
For the molecule B1, the tumor growth inhibition in the experiment with PC-3 tumors (1 mg/kg i.p. b.i.d., 20 days) is listed as 74.1%; in the experiment on PC-3 tumors (continuous delivery via Alzet mini-pump, 1 mg/kg over 24 hours) it was 70.1%.

B2: endostatin: tumor associated angiogenesis inhibitor used as comparator (protein, UniProt P39060 1572-1754, looked up)
Endostatin: HSHRDFQPVLHLVALNSPLSGGMRGIRGADFQCFQQARAVGLAGTFRAFLSSRLQDLYSIVRRADRAAVPIVNLKDELLFPSWEALFSGSEGPLKPGARIFSFDGKDVLRHPTWPQKSVWHGSDPNGRRLTESYCETWRTEAPSATGQASSLLGGRLLGQSAASCHHAYIVLCIENSFMTASK
modifications: Endostatin
Consider B2, for which, in the experiment with PC-3 tumors (20 mg/kg b.i.d., bolus injection), the tumor growth inhibition result was “no significant tumor growth inhibition”.

B3: Tumstatin: NC1 domain of the α3 chain of type IV collagen, residues 1-244 (SEQ ID NO:10) (protein, listed as Homo sapiens)
chain: GLKGKRGDSGSPATWTTRGFVFTRHSQTTAIPSCPEGTVPLYSGFSFLFVQGNQRAHGQDLGTLGSCLQRFTTMPFLFCNVNDVCNFASRNDYSYWLSTPALMPMNMAPITGRALEPYISRCTVCEGPAIAIAVHSQTTDIPPCPHGWISLWKGFSFIMFTSAGSEGTGQALASPGSCLEEFRASPFLECHGRGTCNYYSNSYSFWLASLNPERMFRKPIPSTVKAGELEKIISRCQVCMKKRH
For B3, in experiment [1], the “concentration of maximum inhibition” value was 800 to 1000 ng/mL and the ED50 is 0.55 µg/mL. Further, in experiment [1] (1 mg/ml of protein, produced in 293 cells), the “Percentage of tube formation after treatment” value was determined as 14.0±4.0.

B4: Canstatin: NC1 domain of the α2 chain of Type IV collagen (SEQ ID NO:6) (protein, listed as Homo sapiens)
chain: VSIGYLLVKHSQTDQEPMCPVGMNKLWSGYSLLYFEGQEKAHNQDLGLAGSCLARFSTMPFLYCNPGDVCYYASRNDKSYWLSTTAPLPMMPVAEDEIKPYISRCSVCEAPAIAIAVHSQDVSIPHCPAGWRSLWIGYSFLMHTAAGDEGGGQSLVSPGSCLEDFRATPFIECNGGRGTCHYYANKYSFWLTTIPEQSFQGSPSADTLKAGLIRTHISRCQVCMKNL
In the case of B4, the “inhibition of tube formation” value in experiment [1] (1 mg of Canstatin protein produced in 293 cells) is listed as “near complete inhibition”. In experiment [1], this molecule returned an ED50 of 0.4 µg/mL.
